Molecular target: 鸡传染性法氏囊病病毒 B87株
Assay: cell-based or functional assay

B1: IBDV-VP2 scFv30抗体 (scFv)
scFv: AVTLDESGGGLQTPGGALSLVCKGSGFDFSSHGMAWVRQAPGKGLEWVAGIGSSSSGTAYGSAVQGRATISRDNGQSTVRLQLNNLRAEDTGTYYCAKSVGDCAYGYSCAAGGIDAWGHGTEVIVSSASGGGGSGGGGSGGGGSVLTQPSSVSANPGETVKITCSGGGGSYGWFQQKSPGSAPVTVIYNNNNRPSDIPSRFSGSKSGSTATLTITGVQAEDEAVYYCGGSEDSSAGYVGIFGAGTTLTVLG
阻断或抑制CPE的最小蛋白浓度: 4.69 µg/mL

— CN108484759A
